Test results: US20180072810A1 (published 2018)

Molecular target: T1, cynomolgus PD-1 Fc fusion (cynomolgus monkey, UniProt B0LAJ3 25-170)
T1 construct: also called Cyno PD-1 (ELISA)
Test: ELISA on plate-bound cynomolgus PD-1 Fc fusion

T1 sequence (B0LAJ3 entry or part of it limits assumed, form in doubt): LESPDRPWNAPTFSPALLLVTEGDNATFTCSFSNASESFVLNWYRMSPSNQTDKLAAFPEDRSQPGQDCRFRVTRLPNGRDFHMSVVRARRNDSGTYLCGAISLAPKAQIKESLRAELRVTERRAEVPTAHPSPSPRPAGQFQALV

B1: Nivolumab (antibody, V domains shown)
VH: QVQLVESGGGVVQPGRSLRLDCKASGITFSNSGMHWVRQAPGKGLEWVAVIWYDGSKRYYADSVKGRFTISRDNSKNTLFLQMNSLRAEDTAVYYCATNDDYWGQGTLVTVSS
VL: EIVLTQSPATLSLSPGERATLSCRASQSVSSYLAWYQQKPGQAPRLLIYDASNRATGIPARFSGSGSGTDFTLTISSLEPEDFAVYYCQQSSNWPRTFGQGTKVEIK
- EC50: 0.07 nM
